Reference: patent US20190184015A1, “IRRADIATION TREATMENT OF NEUROLOGICAL SENSATIONS BY PHOTOABLATION” (European Molecular Biology Laboratory, priority 2016, published 2019)
“Also recorded” adds a separate entry of the source.

Assays:
TrkB positive neurons = experiment: Diphtheria toxin mediated ablation of TrkB+ sensory neurons in TrkBCreERT2::AviliDTR mice; format: in vivo, mouse; conditions: systemic injection; DRG sections
[1] = tested on: Calcipotriol model of atopic dermatitis; experiment: Calcipotriol model of atopic dermatitis; conditions: prevention: injection and near IR illumination 3 days prior to Calcipotriol
primary keratinocytes = experiment: In-vitro photo-ablation of primary keratinocytes (propidium iodide staining); format: cell-based, mouse; conditions: wild type keratinocytes; near infra-red light; 24 hours after
Method: 1 μM IL31^SNAP and 3 μM BG-IR700 were coupled for 1 hour at 37° C. The coupling reaction was applied for 10 minutes at 37° C. on primary wild type and IL31RA^−/− keratinocytes. Cells were then exposed to near infra-red light (680 nm) at 40 J/cm^2 for 2 minutes. 24 hours after light exposure cell death was assessed by Propidium iodide (PI) staining (Invitrogen #P3566) and cells were imaged with an epifluorescent microscope.

TrkB positive afferents = experiment: Innervation of skin and DRG neuron counts after photoablation; format: in vivo, mouse; conditions: 7 days after photoablation (13 days post-SNI)
Description: Prior to photoablation, TrkB positive lanceolate endings were detected around hair follicles (FIG. 9a) and innervating Meissner corpuscles in the plantar surface of the paw. […] It was further investigated whether loss of TrkB^CreERT2 neurons was also evident at the level of the cell soma by analyzing the number of TrkB^CreERT2 positive neurons in the DRG.

[2] = tested on: HEK293T cells expressing TrkB/p75; experiment: BDNF^SNAP-IR700 photoablation of HEK293T cells (propidium iodide); format: cell-based; conditions: HEK293T cells expressing TrkB/p75; 24 hours after brief illumination
Description: In initial experiments BDNF^SNAP-IR700 was applied to HEK293T cells expressing TrkB/p75 and cell death assayed following near infrared illumination.

[3] = tested on: wild type and IL31RA^−/− mice; experiment: Scratching behavior upon intradermal injection of the ligand; format: in vivo, mouse; conditions: 5 μM
[4] = tested on: phosphorylated Akt, pMAPK and pSTAT3; experiment: Immunoblot of IL31 downstream signaling in injected skin; format: in vivo, mouse; conditions: skin harvested 1 hour after subcutaneous injection, 5 μM
Description: A conceptual problem of using IL31^SNAP therapeutically is that it in itself evokes itch. The inventors therefore sought to engineer IL31^SNAP to obtain a ligand that still binds to IL31 receptor complex but no longer promotes signaling. […] The K138A mutation denotes the murine IL31 mutations. The corresponding mutation in the human IL31 protein is at position K134 in the human IL31 (SEQ ID NO: 1). The inventors generated a recombinant IL31^K138A-SNAP fusion protein, labelled it with BG-Surface549 and applied it to keratinocytes. […] Importantly, such signal was not present in IL31RA^−/− keratinocytes (FIG. 2b). The inventors further assessed cellular signaling pathways activated by IL31^SNAP and […] in the skin by examining levels of phosphorylated Akt, pMAPK and pSTAT3 which have all been previously implicated in IL31 downstream signaling (14, 21, 22). […]
To assess the coupling reaction, 10 and 20 pmol IL31^SNAP was coupled with 30 and 60 pmol BG549 respectively for 1 hour at 37° C. […] The bands corresponding to the binding of IL31^SNAP with BG549 were visualized by gel fluorescence. […] Protein lysate was quantified by Bradford assay. […] Bands were visualized using the ECL detection system (Amersham #RPN2106); band density was calculated using ImageJ and the levels of phosphorylated proteins were normalized to the total counterpart.

IL31 Receptor A (IL31RA) = experiment: Binding studies in primary keratinocyte cultures with BG-Surface549 labelled ligand; design: species or system mouse
Description: The inventors produced recombinant IL31 with a C-terminal fusion of SNAP (IL31^SNAP) in E. Coli. […] To determine whether IL31^SNAP was functional the inventors first performed binding studies in primary keratinocyte cultures. IL31^SNAP was labelled in vitro with BG-Surface549 and applied to keratinocytes from wildtype or IL31 Receptor A (IL31RA) knockout mice (IL31RA^−/−). […] The inventors further examined IL31^SNAP labelling in vivo by injecting IL31^SNAP-Surface549 intradermally into the back skin of wild type and IL31RA^−/− mice. […] Finally, the inventors determined whether IL31^SNAP was active by quantifying scratching behavior in mice upon intradermal injection. […] Thus the IL31^SNAP retains the functional properties of native IL31.
Primary keratinocytes were isolated from 1-3 day-old wild type and IL31RA^−/− mice as previously described (25). Briefly, newborn mouse skin was removed and incubated flat in cold and freshly thawed trypsin overnight, at 4° C., with the dermis side down. The next day, epidermis was peeled off, triturated and keratinocytes were cultured in serum free media (Invitrogen #10744-019) on Collagen I (Sigma #3867)-coated dishes (Ibidi #81151). All experiments were performed on 48-72 hours cultured cells.
Cells were incubated with the coupling reaction for […] at 37° C., then washed 3 times in CIB; and imaged using confocal microscope.

| fluorescent signal in keratinocytes (IL31 Receptor A (IL31RA); IL31RA^−/− keratinocytes) | fluorescent signal in keratinocytes (IL31 Receptor A (IL31RA); wildtype keratinocytes) | Molecule | scratching behavior evoked by the ligand ([3]; IL31RA^−/− mice) | scratching behavior evoked by the ligand ([3]; wildtype mice) | phosphorylation of Akt, MAPK and STAT3 in skin [4] | further results |
| --- | --- | --- | --- | --- | --- | --- |
| – | – | diphtheria toxin | – | – | – | ablation of TrkBCreERT2::AviliDTR and TrkB mRNA positive neurons (TrkB positive neurons): ~90%; expression of other markers (TrkB positive neurons): no change; reduction in the number of NF200 positive neurons (TrkB positive neurons): ~40% |
| – | – | BG-PEG11-IRDye®700DX [IR700] | – | – | – | development of atopic dermatitis-like indicators [1]: ineffective at blocking the progression of the condition; cell death after illumination (primary keratinocytes): not evident; innervation of hairy and glabrous skin (TrkB positive afferents): no apparent reduction in innervation; cell death after near infrared illumination [2]: not evident |
| not present | strong fluorescent signal internalized | IL31^SNAP: recombinant IL31 with a C-terminal fusion of SNAP, produced in E. Coli (protein, left off: small tags and cut ends, recombinant IL31 with a C-terminal fusion of SNAP, produced in E. Coli) TCSLSFGAPISKEDLRTTIDLLKQESQDLYNNYSIKQASGMSADESIQLPCFSLDREALTNISVIIAHLEKVKVLSENTVDTSWVIRWLTNISCFNPLNLNISVPGNTDESYDCKVFVLTVLKQFSNCMAELQAKDNTTC | did not evoke scratching | evoked robust scratching; also recorded: induced robust scratching | increased phosphorylation in each pathway | – |
| – | – | IL31: native recombinant IL31 (Peprotech) (protein) TCSLSFGAPISKEDLRTTIDLLKQESQDLYNNYSIKQASGMSADESIQLPCFSLDREALTNISVIIAHLEKVKVLSENTVDTSWVIRWLTNISCFNPLNLNISVPGNTDESYDCKVFVLTVLKQFSNCMAELQAKDNTTC | did not evoke scratching | – | – | – |
| not present | Pronounced fluorescence | IL31^K138A-SNAP: recombinant fusion protein of murine IL31 point mutant K138A with SNAP (protein, left off: small tags and cut ends) TCSLSFGAPISKEDLRTTIDLLKQESQDLYNNYSIKQASGMSADESIQLPCFSLDREALTNISVIIAHLEKVKVLSENTVDTSWVIRWLTNISCFNPLNLNISVPGNTDESYDCAVFVLTVLKQFSNCMAELQAKDNTTC | – | did not evoke any scratching above baseline levels | increase was absent | – |
